Consider 1 molecule from patent KR20220013311A (dated 2022).

Assay [1] deals with T1, SARS-CoV-2 바이러스 표면 단백질 (RBD) (SARS-CoV-2, UniProt P0DTC2 319-541). The assay can be described thus: BLI (Octet), full IgG against RBD. (In general: In BLI a coated tip is dipped into the sample, and binding shifts an interference pattern.)
Assay [2] concerns the target T1, SARS-CoV-2 바이러스 표면 단백질 (RBD). The assay can be described thus: BLI (Octet), full IgG against SARS-CoV-2 RBD.
Assay [3] shares this target. The assay can be described thus: BLI (Octet), full IgG against RBD; printed as kdis.

B1: No. 32 항체 (Full IgG) (antibody, V domains shown)
VH: EVQLVQSGGGLIQPGGSLRLSCAASEFIVSSNYMTWVRQAPGKGLEWVSIIYPGGSTYYADSVKGRFTISRDNSKNTLYLRMNSLRAEDTAVYYCARDLPLTGTTLDYWGQGTLVTVSS
VL: not shown
For B1, in assay [1], the affinity, expressed as Kd, was 305 pM and the kon (usually a measure of how fast the partners come together) turned out to be 633000 M⁻¹ s⁻¹. For the same molecule, binding in assay [2] was characterised by a dissociation constant (Kd) of 147 pM. The koff (in general, the rate constant with which the complex falls apart) in assay [3] was 0.000193 s⁻¹.
